Test results published in article PMC6805997 (mBio, 2019).
Residue numbers refer to the chain shown, from its start.

Assays:
[1] = biological target: T1, recombinant IsdB (iron-regulated surface determinant protein B), without signal peptide and sorting signal (Staphylococcus aureus, UniProt A6QG30); experiment: BLI; settings: both partners purified
T1 construct: source: E. coli BL21(DE3), pET15b, purified (HiTrap Talon column)

[2] = biological target: T1, recombinant IsdB (iron-regulated …); experiment: ELISA; settings: both partners purified

T1 sequence (A6QG30 41-613): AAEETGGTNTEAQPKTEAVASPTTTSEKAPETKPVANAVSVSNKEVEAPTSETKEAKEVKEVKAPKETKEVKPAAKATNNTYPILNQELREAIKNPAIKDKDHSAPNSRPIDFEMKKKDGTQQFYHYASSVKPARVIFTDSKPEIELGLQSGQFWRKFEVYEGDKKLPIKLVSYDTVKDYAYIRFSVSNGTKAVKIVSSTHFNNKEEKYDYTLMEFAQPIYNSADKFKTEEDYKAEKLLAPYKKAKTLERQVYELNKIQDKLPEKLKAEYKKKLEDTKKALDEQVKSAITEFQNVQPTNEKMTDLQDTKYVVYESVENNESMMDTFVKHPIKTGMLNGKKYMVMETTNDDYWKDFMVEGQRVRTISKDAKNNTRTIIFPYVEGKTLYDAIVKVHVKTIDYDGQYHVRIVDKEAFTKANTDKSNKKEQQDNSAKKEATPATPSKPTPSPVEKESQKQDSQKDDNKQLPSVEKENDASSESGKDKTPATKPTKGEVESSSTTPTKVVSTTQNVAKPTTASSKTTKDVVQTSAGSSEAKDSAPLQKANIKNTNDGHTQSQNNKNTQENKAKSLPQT

B1: STAU-229 clonal variant 3 (recombinant mAb) (antibody, V domains shown)
VH: EVQLVQSGAEVKKPGATVKIPCQVSGYTFTDYYIHWVQQAPGKGLEWMGLVDPEDGETRYAEKFQGRVTITADTSTDTAYMEMSSLTSEDAAVYYCAKPHCTTSSCQRVSGYYFGMDVWGQGTTVTVSS
VL: QSALTQPPSASGSPGQSVTISCTGSSNDVGDYNFVSWYQQHPGKPPKLMIYEVTKRPSGVPDRFFGSKSGNTASLTVSGLQADDEADYYCSSYAGGNSVVFGGGTKLTVL
notes: source: expressed recombinantly with the original light chain and purified
For B1, the Kd [1] was 1.44 nM and the “fold lower avidity than the hybridoma IgG” value [1] was ~7 times.

B2: STAU-229 mAb (hybridoma cell line-expressed IgG) (antibody, V domains shown)
VH: EVQLVQSGAEVKKPGATMKISCKVSGYPFTDYYMHWVQQAPGKGLEWMGLIDPEDGETNYAEKFQGRVTITADTSTDTVYMELSSLRSEDTAVYFCAKPHCSSRTCQRVSGYYFGMDVWGQGTLVTVSS
VL: B1 VL
notes: also called STAU-229 IgG; hybridoma IgG
B2: binds [1].

B3: STAU-281 mAb (IgG) (antibody, V domains shown)
VH: QVQLVQSGAEVKRPGSSVRVSCKDSGDSFRRYVINWVRQAPGQGLEWMGGIIPIFDKAKSVQKFQDRLTITADESTSTSYMELSSLTSEDTAVYYCARKEDGRRDDVFDIWGQGTLVTVSS
VL: EIVMTQSPATLSVSLGERATLSCRASHSVGSSLAWYQQKPGLAPRLLIYGVSTRATGIPARFSGSGSATEFTLTISSLQSEDLAAYHCQQYDNWPFTFGQGTKLEIK
B3: binds [1].

B4: STAU-399 clonal variant 6 (recombinant mAb) (antibody, V domains shown)
VH: HVQLVQSGAEVKKPGSSLKVSCKGSGGKLRGYGFSWGRQAPGQGLEWMGVIIPIFGAPTYAQKFQGRVTLAADESNNTVFMELSSLRSEDTAVYYCARDWPSITVAVDATNYGMDVWGQGTTVTVSS
VL: QSALTQPRSVSGSPGQSVTISCTGTSNDVGYYDHVSWYQQHPGKAPKFIIYDVSKRPSGVPDRFSGSKSDNTASLTISGLQAEDEADYYCCSFAGSYTYVFGTGTKVTVL
notes: as for B1
In the case of B4, the “fold lower EC50 value than the hybridoma IgG” value [2] is reported as 18 fold and the “fold lower affinity than the hybridoma IgG” value [1] is reported as 27 fold.

B5: STAU-399 mAb (hybridoma IgG) (antibody, V domains shown)
VH: B4 VH with H1Q, G24V, K28N, G31S, F34I, G37V, A57T, E74D, T78I, T122L
VL: B4 VL
notes: also called STAU-399 IgG
B5: binds [1].

B6: STAU-307 clonal variant 1 (antibody, V domains shown)
VH: QAQLMQSGAEVKKTGSSVKVSCTASGGTFNTNDLMWVRQAPGQGLEWMGGIVPVFGKPKYAKKFHGRLIITADEYMTTVYMELTSLTFDDTAIYFCARSGSTESPIQDIDFWGQGTQVTVSS
VL: SYVLTQPPSVSVAPGQTATITCGGDNIATFSVHWYRQKPGQAPVLVVYDDLDRASGIPARFSGSNSGNTATLTISRVEPGDEADYFCQVWEISSDEYVFGPGTSVTVL
notes: also called Variant 1 (STAU-307)
B6: binds [1].
